Source: article PMC3865438

Target: cytochrome b6f complex from Chlamydomonas reinhardtii (Chlamydomonas reinhardtii) (UniProt Q00471)
Assay: crystal structure

Substance: cytochrome b6f complex from Chlamydomonas reinhardtii (from UniProt Q00471 1-215; P49728 30-206; P23230 1-160; P23577 32-317)
- stoichiometry N: 2
